Square brackets hold non-standard residues; d marks the D form. Ends that are not written are not given here. Cit = NC(=O)NCCC[C@H](N)C(=O)O

Assay [1] deals with T1, citrullinated histone 2A-derived peptide (SEQ ID NO: 18), C-terminal biotin (human).
T1 construct: Captured by its biotin on NeutrAvidin plates (ELISA) or streptavidin biosensors (Octet); also called histone-derived peptide; citrullinated H2A-derived peptide
T1 peptide: SG[Cit]GKQGGKARA-biotin
In words: CMC ELISA, biotinylated peptide on NeutrAvidin-coated plate, anti-human-HRP, OD 450 nm, interpolated on the hMQ22.101f/g calibration curve. How it is done: (§1) hMQ22.101j/e samples from week 0, 2, 4, 6 and 8, and hMQ22.101f/g samples from week 0, 3 and 6 were subjected to an in house-validated CMC ELISA. 96-well ELISA plates were coated with NeutrAvidin™ ([…]) by overnight incubation at 4° C. Wells were washed 5 times with PBS-Tween® (polysorbate) 20 (PBS-T) and blocked by a 2 hour incubation with PBS-T+1% Bovine serum albumin (BSA) at room temperature (RT). After 5 more washes with PBS-T, wells were incubated for 1 hour at RT with a histone-derived peptide (SEQ ID NO 18: SGXGKQGGKARA), containing a citrulline (X) at position 3 and a C-terminal biotin (40 ng/well) in PBS-T+0.2% BSA. After another 5 washes with PBS-T, a calibration curve made from a reference lot of hMQ22.101j/e or hMQ22.101f/g by adding to the wells starting at […] and further diluted at a 1:1 ratio until reaching a concentration of 0.66 ng/ml in PBS-T+0.2% BSA. Spiked quality control (QC) samples made from the same reference lot hMQ22.101j/e or hMQ22.101f/g at higher (HQC, 250 ng/ml), middle (MQC, 50 ng/ml), lower (LQC 3.75 ng/ml) and lower limit quality control (LLQC, 1.25 ng/ml) were diluted in PBS-T+0.2% BSA and added to the plate as well. These QC samples were used in order to validate the ELISA results.
(§2) Finally, accelerated stability samples that had been incubated for 0, 2, 3, 4, 6 and 8 weeks at 37° C. were added to the same plate at a concentration of 40 ng/ml in PBS-T+0.2% BSA and incubated for 2 hours at RT. Wells were washed 5 times with PBS-T and incubated with rabbit anti-human-HRP antibody (1:12.000 in PBS-T+0.2% BSA) for 1 hour at RT followed by 3 washes with PBS-T and 3 washes with PBS. Wells were incubated 10 min with TMB substrate before stopping the reaction with 2 M H₂SO₄ after which the optical density was measured at wavelength of 450 nm. A sigmoidal calibration curve was plotted and fitted using the values from the serial diluted reference antibody. Concentrations of the QC samples and accelerated stability samples were recalculated using the equation from the sigmoidal fitted curve.
On the technique in general: ELISA stands for enzyme-linked immunosorbent assay.

The target of assay [2] is T2, citrullinated histone 4-derived peptide (SEQ ID NO: 20), C-terminal biotin (human, citrulline at position 3; biotin at the C-terminus).
T2 construct: Immobilized on streptavidin biosensors (Octet RED96); also called H4-derived peptide; N-terminal histone 4 peptide
T2 peptide: SGXGKGGKGLGK
Description: Octet RED96 off-rate screen, biotinylated peptide on streptavidin biosensors, antibody 72 nM, 30 C. Here is the method:
(§3) Off-rate screening of the isomerization-mutated antibodies was performed on an Octet® RED96 (biomolecule detection system) instrument (Pall ForteBio). All measurements were performed at 30° C. Streptavidin (SA) biosensors were first washed for 50 sec with PBS. 1 μg/ml N-terminal histone 2A (SEQ ID NO: 18) and histone 4 (SEQ ID NO: 20) peptides, containing both a citrulline at position 3 and a biotin at the C-terminus, were immobilized on SA biosensors for 200 sec, washed with PBS for 50 sec and excess reactive streptavidin molecules blocked with EZ-Link™ biocytin for 200 sec. After two additional 50 sec wash steps in PBS, antibodies at a concentration of 72 nM diluted in PBS were allowed to bind to the biosensors for 200 sec. Sensors were subsequently placed in PBS for 4000 sec in order to measure their dissociation rates.
(§4) Background signals generated with non-coated biosensors, which have been exposed to the various antibodies as well as signals from coated biosensors that have not been exposed to the various antibodies, have been subtracted before dissociation curves for each antibody were plotted. Both histone 2A and histone 4 dissociation rates constants (kdis×E-07 (1/s)) for each antibody were calculated applying a 1:1 interaction model (fitting local, full) using ForteBio data analysis software 8.1.
A general note: Biolayer interferometry detects binding as a change in optical thickness at a sensor tip.

The target of assay [3] is T1, citrullinated histone 2A-derived …. Description: CMC ELISA, biotinylated peptide on NeutrAvidin-coated plate, anti-human-HRP, OD 450 nm, interpolated on a calibration curve. Here is the method: as §1, with “Spiked quality control (QC) samples made from the same reference lot hMQ22.101j/e or hMQ22.101f/g at higher (HQC, 250 ng/ml), middle (MQC, 50 ng/ml), lower (LQC 3.75 ng/ml) and lower limit quality control (LLQC, 1.25 ng/ml) were diluted in PBS-T+0.2% BSA and added to the plate as well. These QC samples were used in order to validate the ELISA results.” left out
Finally, accelerated stability samples that had been incubated for 0, 2, 3, 4, 6 and 8 weeks at 37° C. were added to the same plate at a concentration of 40 ng/ml in PBS-T+0.2% BSA and incubated for 2 hours at RT. […] Wells were incubated 10 min with TMB substrate before stopping the reaction with 2 M H₂SO₄ after which the optical density was measured at wavelength of 450 nm. […]

The target is the same in assay [4]. In words: CMC ELISA, biotinylated peptide on NeutrAvidin-coated plate, anti-human-HRP, OD 450 nm. Here is the method:
as §1, §2

Assay [5] has the same target. In words: Octet RED96 off-rate screen, biotinylated peptide on streptavidin biosensors, antibody 72 nM, 30 C. How it is done:
as §3, §4

B1: hMQ22.101f/LC17 (antibody, V domains shown)
VH: RIQLVQSGAEVKKPGASVKVSCKASGYTFTNYGMHWVRQAPGQGLEWMGWINTYSGEATYAQKFQGRVTMTRDTSISTAYMELSRLRSDDTAVYYCLRGYTYQSFDEGGDYWGQGTLVTVSS
VL: DVVMTQSPLSLPVTLGQPASISCRSSQSLLDTDGKTYLNWFQQRPGQSPRRLIYLVSKLDSGVPDRFSGSGSGTDFTLKISRVEAEDVGVYYCWQGTHFPYTFGQGTKLEIK
notes: also called isomerization mutant; heavy chain hVH22.101f with light chain hVL22.101LC17
Turning to B1, the binding result in assay [1] is “binds”.

B2: hMQ22.101f/g (antibody, V domains shown)
VH: RIQLVQSGAEVKKPGASVKVSCKASGYTFTNYGMHWVRQAPGQGLEWMGWINTYSGEATYAQKFQGRVTMTRDTSISTAYMELSRLRSDDTAVYYCLRGYTYQSFDEGGDYWGQGTLVTVSS
VL: DVVMTQSPLSLPVTLGQPASISCRSSQSLLDSDGKTYLNWFQQRPGQSPRRLIYLVSKLDSGVPDRFSGSGSGTDFTLKISRVEAEDVGVYYCWQGTHFPYTFGQGTKLEIK
notes: Full-size humanized antibody; also called humanized therapeutic antibody with heavy chain hVH22.101f and light chain hVL22.101g; tACPA
Take B2: the binding result in assay [2] and in assay [3] was “binds” throughout.

B3: hMQ22.101j/h (antibody, V domains shown)
VH: QVQLVQSGAEVKKPGASVKVSCKASGYTFTNYGMHWVRQAPGQGLEWMGWINTYSGEATYAQKFQGRVTMTRDTSISTAYMELSRLRSDDTAVYYCLRGYTYQSFDEGGDYWGQGTLVTVSS
VL: DVVMTQSPLSLPVTLGQPASISCRSSQSLVASDGKTYLNWFQQRPGQSPRRLIYLVSKLDSGVPDRFSGSGSGTDFTLKISRVEAEDVGVYYCWQGTHFPYTFGQGTKLEIK
notes: also called VL CDR1 aspartate-mutated antibody (DS site to AS)
Consider B3, for which, in assay [4], the binding result was “binds”.

B4: hMQ22.101j/LC27 (antibody, V domains shown)
VH: QVQLVQSGAEVKKPGASVKVSCKASGYTFTNYGMHWVRQAPGQGLEWMGWINTYSGEATYAQKFQGRVTMTRDTSISTAYMELSRLRSDDTAVYYCLRGYTYQSFDEGGDYWGQGTLVTVSS
VL: DVVMTQSPLSLPVTLGQPASISCRSSQSLLDTDAKTYLNWFQQRPGQSPRRLIYLVSKLDSGVPDRFSGSGSGTDFTLKISRVEAEDVGVYYCWQGTHFPYTFGQGTKLEIK
notes: also called isomerization mutant; heavy chain hVH22.101j with light chain hVL22.101LC27
As to B4, the binding result in assay [5] and in assay [2] was “binds” in each case.

B5: hMQ22.101j/LC41 (antibody, V domains shown)
VH: QVQLVQSGAEVKKPGASVKVSCKASGYTFTNYGMHWVRQAPGQGLEWMGWINTYSGEATYAQKFQGRVTMTRDTSISTAYMELSRLRSDDTAVYYCLRGYTYQSFDEGGDYWGQGTLVTVSS
VL: DVVMTQSPLSLPVTLGQPASISCRSSQSLLDADGKTYLNWFQQRPGQSPRRLIYLVSKLDSGVPDRFSGSGSGTDFTLKISRVEAEDVGVYYCWQGTHFPYTFGQGTKLEIK
notes: also called isomerization mutant; heavy chain hVH22.101j with light chain hVL22.101LC41
Take B5: the binding result in assay [5] and in assay [2] was “binds” in each case.

B6: hMQ22.101j/LC42 (antibody, V domains shown)
VH: QVQLVQSGAEVKKPGASVKVSCKASGYTFTNYGMHWVRQAPGQGLEWMGWINTYSGEATYAQKFQGRVTMTRDTSISTAYMELSRLRSDDTAVYYCLRGYTYQSFDEGGDYWGQGTLVTVSS
VL: DVVMTQSPLSLPVTLGQPASISCRSSQSLLDNDGKTYLNWFQQRPGQSPRRLIYLVSKLDSGVPDRFSGSGSGTDFTLKISRVEAEDVGVYYCWQGTHFPYTFGQGTKLEIK
notes: also called isomerization mutant; heavy chain hVH22.101j with light chain hVL22.101LC42
Turning to B6, the binding result in assay [5] and in assay [2] was “binds” in each case.

B7: hMQ22.101j/e (antibody, V domains shown)
VH: QVQLVQSGAEVKKPGASVKVSCKASGYTFTNYGMHWVRQAPGQGLEWMGWINTYSGEATYAQKFQGRVTMTRDTSISTAYMELSRLRSDDTAVYYCLRGYTYQSFDEGGDYWGQGTLVTVSS
VL: DVVMTQSPLSLPVTLGQPASISCRSSQSLVDSDGKTYLNWFQQRPGQSPRRLIYLVSKLDSGVPDRFSGSGSGTDFTLKISRVEAEDVGVYYCWQGTHFPYTFGQGTKLEIK
notes: Full-size antibody with full-length human heavy and light chains; also called humanized therapeutic antibody with heavy chain hVH22.101j and light chain hVL22.101e; tACPA
As to B7, the binding result in assay [2] and in assay [3] was “binds” each time.

B8: hMQ22.101f/LC41 (antibody, V domains shown)
VH: RIQLVQSGAEVKKPGASVKVSCKASGYTFTNYGMHWVRQAPGQGLEWMGWINTYSGEATYAQKFQGRVTMTRDTSISTAYMELSRLRSDDTAVYYCLRGYTYQSFDEGGDYWGQGTLVTVSS
VL: DVVMTQSPLSLPVTLGQPASISCRSSQSLLDADGKTYLNWFQQRPGQSPRRLIYLVSKLDSGVPDRFSGSGSGTDFTLKISRVEAEDVGVYYCWQGTHFPYTFGQGTKLEIK
notes: also called development candidate; isomerization mutant
For B8, in assay [1], the binding result was “binds”.

B9: hMQ22.101f/LC42 (antibody, V domains shown)
VH: RIQLVQSGAEVKKPGASVKVSCKASGYTFTNYGMHWVRQAPGQGLEWMGWINTYSGEATYAQKFQGRVTMTRDTSISTAYMELSRLRSDDTAVYYCLRGYTYQSFDEGGDYWGQGTLVTVSS
VL: DVVMTQSPLSLPVTLGQPASISCRSSQSLLDNDGKTYLNWFQQRPGQSPRRLIYLVSKLDSGVPDRFSGSGSGTDFTLKISRVEAEDVGVYYCWQGTHFPYTFGQGTKLEIK
notes: also called isomerization mutant; heavy chain hVH22.101f with light chain hVL22.101LC42
With B9, the binding result in assay [1] is listed as “binds”.

B10: hMQ22.101j/LC21 (antibody, V domains shown)
VH: QVQLVQSGAEVKKPGASVKVSCKASGYTFTNYGMHWVRQAPGQGLEWMGWINTYSGEATYAQKFQGRVTMTRDTSISTAYMELSRLRSDDTAVYYCLRGYTYQSFDEGGDYWGQGTLVTVSS
VL: DVVMTQSPLSLPVTLGQPASISCRSSQSLLDSDAKTYLNWFQQRPGQSPRRLIYLVSKLDSGVPDRFSGSGSGTDFTLKISRVEAEDVGVYYCWQGTHFPYTFGQGTKLEIK
notes: also called isomerization mutant; heavy chain hVH22.101j with light chain hVL22.101LC21
Turning to B10, the binding result in assay [5] and in assay [2] was “binds” in each case.

B11: hMQ22.101j/i (antibody, V domains shown)
VH: QVQLVQSGAEVKKPGASVKVSCKASGYTFTNYGMHWVRQAPGQGLEWMGWINTYSGEATYAQKFQGRVTMTRDTSISTAYMELSRLRSDDTAVYYCLRGYTYQSFDEGGDYWGQGTLVTVSS
VL: DVVMTQSPLSLPVTLGQPASISCRSSQSLVESDGKTYLNWFQQRPGQSPRRLIYLVSKLDSGVPDRFSGSGSGTDFTLKISRVEAEDVGVYYCWQGTHFPYTFGQGTKLEIK
notes: also called VL CDR1 aspartate-mutated antibody (DS site to ES); heavy chain hVH22.101j with light chain hVL22.101i
Turning to B11, the binding result in assay [4] is listed as “binds”.

B12: hMQ22.101f/LC27 (antibody, V domains shown)
VH: RIQLVQSGAEVKKPGASVKVSCKASGYTFTNYGMHWVRQAPGQGLEWMGWINTYSGEATYAQKFQGRVTMTRDTSISTAYMELSRLRSDDTAVYYCLRGYTYQSFDEGGDYWGQGTLVTVSS
VL: DVVMTQSPLSLPVTLGQPASISCRSSQSLLDTDAKTYLNWFQQRPGQSPRRLIYLVSKLDSGVPDRFSGSGSGTDFTLKISRVEAEDVGVYYCWQGTHFPYTFGQGTKLEIK
notes: also called isomerization mutant; heavy chain hVH22.101f with light chain hVL22.101LC27
With B12, the binding result in assay [1] is given as “binds”.

B13: hMQ22.101j/j (antibody, V domains shown)
VH: QVQLVQSGAEVKKPGASVKVSCKASGYTFTNYGMHWVRQAPGQGLEWMGWINTYSGEATYAQKFQGRVTMTRDTSISTAYMELSRLRSDDTAVYYCLRGYTYQSFDEGGDYWGQGTLVTVSS
VL: DVVMTQSPLSLPVTLGQPASISCRSSQSLVSSDGKTYLNWFQQRPGQSPRRLIYLVSKLDSGVPDRFSGSGSGTDFTLKISRVEAEDVGVYYCWQGTHFPYTFGQGTKLEIK
notes: also called VL CDR1 aspartate-mutated antibody (DS site to SS)
As to B13, in assay [4], the binding result was “binds”.

Source of the values: patent publication US20260176342A1 (CITRYLL B V, published 2026).
